The Human Domainome abundance scans (Beltran et al. 2025)

B1: Nuclear receptor subfamily 1 group D member 2, residues 103 to 171; numbered along this chain, Q14995 (parent)
chain: CKVCGDVASGFHYGVHACEGCKGFFRRSIQQNIQYKKCLKNENCSIMRMNRNRCQQCRFKKCLSVGMSR

Variants of: B1
Test: abundance fitness (aPCA) (normalised: wild type 0, dead -1); higher = more abundant; growth selection in yeast, the domain comes from the species named
Details: Homo sapiens

Abundance fitness of substitutions, site by site:
S64: Q 0.12 | L 0.044 | V -0.107 | T -0.002 | A -0.048 | D -0.051 | G -0.481 | M -0.072 | I -0.911 | Y -0.512 | E 0.346 | N -0.36 | R -0.334 | P -0.857 | H -0.449 | F -0.545 | K 0.236 | C -0.469
R48: T -0.013 | S -0.002 | I 0.117 | Y 0.066 | K -0.005 | A 0.193 | V 0.241 | Q 0.134 | E 0.125 | W -0.018 | M 0.443 | L 0.191 | F -0.318 | P 0.346 | G 0.089 | D 0.402 | C -0.417
N43: T -0.215 | S -0.317 | K -0.231 | W -0.79 | Q -0.061 | P -0.472 | L -0.115 | R -0.12 | M -0.373 | V -0.181
F59: I -0.355 | R -0.477 | L 0.107 | D -0.8 | M -0.326 | S -0.809 | G -0.395 | W -0.255 | P -0.783 | A -0.601 | E -0.433 | T -0.512 | Y -0.28 | Q -0.536
N52: F -0.352 | V -0.532 | A 0.394 | L -0.14 | T -0.756 | P -0.698 | M -0.419 | R -0.805 | S -0.395 | W -0.706 | I -0.325 | E 0.139
R58: N -0.759 | T -0.097 | Y -0.055 | S -0.877 | Q -0.046 | L 0.278 | K -0.497 | A -0.272 | W 0.565 | E -0.474 | H 0.466 | I -0.806 | P -0.698 | M 0.036 | C 0.417 | V -0.903 | F 0.109
V65: I -0.308 | F -0.739 | Q -0.733 | P -0.814 | W -1.02 | Y -0.234 | M -0.012 | L -0.708 | A -0.306 | S -0.291 | K -0.851 | R -0.895 | T -0.536 | C -0.571 | D -0.601
K61: L -0.422 | M -0.776 | A -0.328 | S -0.769 | F -0.608 | P -0.905 | Q -0.647 | T -0.652 | E -0.414 | C -0.717 | Y -0.547 | H -0.681 | G -0.385 | W -0.746 | V -0.886
K60: M -0.141 | E 0.033 | W 0.021 | A -0.009 | F 0.044 | V -0.249 | L -0.097 | S -0.284 | G -0.428 | I 0.406 | N -0.056
S45: I -0.039 | Y -0.045 | R -0.259 | V -0.056 | M 0.156 | P -0.166 | T -0.133 | N 0.261 | L -0.183 | W -0.54 | A -0.424 | C -0.03 | G -0.119 | K -0.646
C57: L -0.708 | Q -0.59 | D -0.689 | I -0.44 | S -0.836 | K -0.687 | G -0.855 | M -1 | R -1.21 | V -1.01 | F -0.806 | A -0.738
R51: L -0.059 | E -0.091 | K 0.044 | T -0.214 | Q -0.063 | S -0.118 | Y -0.077 | I -0.417 | G -0.001 | P 0.216 | W -0.077 | A -0.165 | M -0.328 | V 0.026
I46: N -0.012 | V 0.123 | L -0.282 | P 0.068 | Y 0.082 | R -0.127 | W -0.709 | K -0.789 | M -0.093 | H -0.162 | E -0.437 | Q -0.39 | T -0.387 | F -0.613 | S -0.353 | G -0.258 | A -0.041
S68: D -0.049 | A 0.029 | C -0.097
C62: P -0.843 | Y -0.492 | M -0.336 | T -0.948 | G -0.857 | S -0.757 | E -0.456 | A -0.015 | N -0.812 | L -0.875 | V -0.665 | R -0.667
Q55: L -0.006 | P 0.027 | S -0.115 | A 0.099 | V -0.425 | C -0.324 | R -0.418 | I -0.611 | N -0.265 | G 0.088 | K -0.202 | E 0.251 | Y -0.08 | M -0.53
M49: G 0.044 | Y 0.128 | N 0.093 | E 0.114 | Q 0.15 | T 0.147 | R -0.316 | S 0.076 | D 0.428 | P -0.178 | K 0.12 | I 0.56 | F 0.195
R53: W 0.14 | D 0.318 | V 0.186 | K 0.028 | C 0.3 | L 0.228 | G 0.103 | N 0.332 | M 0.098 | Q 0.364 | F 0.257 | H 0.029 | E 0.412 | P 0.142 | A 0.248 | T 0.092
L63: V -0.502 | I 0.268 | A -0.071 | Q -0.329 | N -0.911 | M -0.914 | G -0.92 | K -0.8 | P -0.789 | T -0.523 | E -0.121 | R -0.991
C54: R -0.668 | P -0.606 | G -0.847 | A -0.552 | S -0.688 | D -0.749 | L -0.749 | Q -0.922 | Y -0.576 | I -0.903 | M -0.618 | W -1.09 | T -0.717 | K -0.134 | N -0.722 | E -0.77 | F -0.946
G66: D -0.866 | F -0.562 | L -0.459 | P -0.802 | V -0.798 | M -0.574
M67: T -0.822 | A -0.574 | S -0.925 | L -0.817 | K -0.688 | E -0.483 | R -0.241 | V -0.794 | D 0.029 | H -0.973 | G -0.744 | Y -0.558 | W -0.415
N50: F -0.107 | P -0.45 | E -0.193 | R -0.359 | G -0.383 | K -0.346 | S -0.349 | Q 0.032 | I -0.415 | L -0.45 | T -0.121 | V -0.306 | M -0.61
Q56: K -0.3 | V -0.134 | D 0.397 | E 0.1 | L -0.022 | N 0.143 | R -0.127 | T -0.013 | W 0.39 | M 0.002 | H -0.09 | F -0.006 | C -0.391 | P -0.205 | I -0.134
M47: Y -0.482 | D 0.283 | H 0.07 | I -0.421 | L -0.057 | S 0.184 | R -0.062 | V -0.051 | A 0.006 | T 0.307 | K -0.185 | P -0.237 | E 0.408
C44: Y -0.183
